The stoichiometry N is a count of units in the complex or per binding partner.

The series “SEC” deals with the molecule itself. Description: SEC. (In general: Size exclusion chromatography separates by hydrodynamic size, large species first.)
For series [1], the target named is T1, Sulfolobus solfataricus SRP54 (SRP54 moiety of SRP54*) (Sulfolobus solfataricus, UniProt Q97ZE7 2-432).
T1 sequence (looked up): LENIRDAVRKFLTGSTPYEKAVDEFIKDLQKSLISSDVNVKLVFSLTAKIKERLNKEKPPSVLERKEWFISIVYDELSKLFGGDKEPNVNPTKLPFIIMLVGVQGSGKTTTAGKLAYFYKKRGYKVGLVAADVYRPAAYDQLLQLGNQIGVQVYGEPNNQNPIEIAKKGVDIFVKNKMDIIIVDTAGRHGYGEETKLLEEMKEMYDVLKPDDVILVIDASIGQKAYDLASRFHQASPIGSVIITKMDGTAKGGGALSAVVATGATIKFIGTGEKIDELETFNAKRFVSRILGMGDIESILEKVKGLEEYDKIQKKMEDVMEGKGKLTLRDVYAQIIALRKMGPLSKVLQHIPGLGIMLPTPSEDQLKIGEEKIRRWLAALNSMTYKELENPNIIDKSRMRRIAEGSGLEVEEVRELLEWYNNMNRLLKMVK
Put plainly: crystal structure.

Bounds are passed on as bounds.

B1: SRP54-signal sequence fusion protein (SRP54*) with an 11mer linker (other, Sulfolobus solfataricus | S. cerevisiae)
chain: LENIRDAVRKFLTGSTPYEKAVDEFIKDLQKSLISSDVNVKLVFSLTAKIKERLNKEKPPSVLERKEWFISIVYDELSKLFGGDKEPNVNPTKLPFIIMLVGVQGSGKTTTAGKLAYFYKKRGYKVGLVAADVYRPAAYDQLLQLGNQIGVQVYGEPNNQNPIEIAKKGVDIFVKNKMDIIIVDTAGRHGYGEETKLLEEMKEMYDVLKPDDVILVIDASIGQKAYDLASRFHQASPIGSVIITKMDGTAKGGGALSAVVATGATIKFIGTGEKIDELETFNAKRFVSRILGMGDIESILEKVKGLEEYDKIQKKMEDVMEGKGKLTLRDVYAQIIALRKMGPLSKVLQHIPGLGIMLPTPSEDQLKIGEEKIRRWLAALNSMTYKELENPNIIDKSRMRRIAEGSGLEVEEVRELLEWYNNMNRLLKMVKARSGSGSGSGSKLIRVGIILVLLIWGTVLLLKSIPHH
With B1, the “stoichiometry N” value in “SEC” was at least 2.
As to KLIRVGIILVLLIWGTVLLLKSIPHH [signal anchor sequence from S. cerevisiae dipeptidyl-aminopeptidase B (DPAP-B)], the binding result in series [1] is “binds”.

These data come from publication PMC2897128 (Nature, 2010).
